Data on five substances can be found in US20040229298A1.

pEC50: −log10 of the molar value. Values joined by “and” are separate entries in the source; they are usually repeats but may differ in a detail not shown here. Identical values can stand only once.

Assay [1] deals with HPV16 E6 PDZ ligand peptide (biotinylated C-terminal peptide of the E6 protein of HPV 16) (human papillomavirus 16) (UniProt P03126). Description: G assay ELISA, immobilised GST-PDZ, 10 uM biotinylated peptide. (ELISA stands for enzyme-linked immunosorbent assay.)
For assay [2] the target is unchanged. Description: G assay ELISA, signal over GST-only well.
For assay [3], the target named is GST-PAR3 PDZ domain 3, clone #278.1 (human). Description: G assay ELISA, 10 uM biotin peptide on anti-GST-captured GST-PDZ.
Assay [4] addresses GST-Magi2 PDZ domain 3 (human) (UniProt Q86UL8). The assay is described as above.
The target in assay [5] is GST-Densin PDZ domain 1 (human). The assay is described as above.
Assay [6] concerns the target GST-KIAA1526 PDZ domain 1, clone #119.1 (human). The description is as above.
Assay [7] concerns the target GST-PTPL1 PDZ domain 2 (human). Described as above.
In assay [8] the target is GST-HEMBA 1003117 PDZ domain 1, clone #226.2 (human). The assay is described as above.
Assay [9] deals with GST-EBP50 PDZ domain 1, clone #341.1 (human). The description is as above.
In assay [10] the target is GST-PIST PDZ domain 1 (human). Described as above.
Assay [11] concerns the target GST-DLG-6 PDZ domain 1, clone #333.1 (human) (UniProt Q96JB8). The description is as above.
Assay [12] addresses GST-EBP50 PDZ domain 2, clone #168.2 (human). The assay is described as above.
Assay [13] concerns the target GST-MAGI 1 PDZ domain 5 (human). The description is as above.
The target in assay [14] is GST-KIAA1719 PDZ domain 5 (human). The assay is described as above.
Assay [15] concerns the target GST-MINT1 PDZ domains 1, 2 (human) (UniProt Q02410). The description is as above.
The target in assay [16] is GST-Magi3 PDZ domain 1 (human) (UniProt Q5TCQ9). Description: G assay ELISA, E6 PL peptide titrated on constant GST-PDZ.
Chain of GST-Magi3 PDZ domain 1 (human) (Q5TCQ9 other isoform, or with tags, fused parts or gaps limits assumed, form in doubt): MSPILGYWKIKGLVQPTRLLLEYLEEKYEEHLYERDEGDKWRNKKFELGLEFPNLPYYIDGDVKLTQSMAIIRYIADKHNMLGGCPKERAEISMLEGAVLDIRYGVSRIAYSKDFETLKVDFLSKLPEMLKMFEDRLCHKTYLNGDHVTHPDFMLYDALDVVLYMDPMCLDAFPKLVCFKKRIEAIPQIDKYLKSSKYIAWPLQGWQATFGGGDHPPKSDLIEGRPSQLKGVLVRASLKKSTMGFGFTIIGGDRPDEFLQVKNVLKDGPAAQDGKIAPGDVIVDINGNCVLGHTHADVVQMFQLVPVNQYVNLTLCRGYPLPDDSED
In assay [17] the target is GST-VARTUL PDZ domain (number not stated) (human) (UniProt Q14160). Described as above.
Chain of GST-VARTUL PDZ domain (number not stated) (human) (Q14160 other isoform, or with tags, fused parts or gaps limits assumed): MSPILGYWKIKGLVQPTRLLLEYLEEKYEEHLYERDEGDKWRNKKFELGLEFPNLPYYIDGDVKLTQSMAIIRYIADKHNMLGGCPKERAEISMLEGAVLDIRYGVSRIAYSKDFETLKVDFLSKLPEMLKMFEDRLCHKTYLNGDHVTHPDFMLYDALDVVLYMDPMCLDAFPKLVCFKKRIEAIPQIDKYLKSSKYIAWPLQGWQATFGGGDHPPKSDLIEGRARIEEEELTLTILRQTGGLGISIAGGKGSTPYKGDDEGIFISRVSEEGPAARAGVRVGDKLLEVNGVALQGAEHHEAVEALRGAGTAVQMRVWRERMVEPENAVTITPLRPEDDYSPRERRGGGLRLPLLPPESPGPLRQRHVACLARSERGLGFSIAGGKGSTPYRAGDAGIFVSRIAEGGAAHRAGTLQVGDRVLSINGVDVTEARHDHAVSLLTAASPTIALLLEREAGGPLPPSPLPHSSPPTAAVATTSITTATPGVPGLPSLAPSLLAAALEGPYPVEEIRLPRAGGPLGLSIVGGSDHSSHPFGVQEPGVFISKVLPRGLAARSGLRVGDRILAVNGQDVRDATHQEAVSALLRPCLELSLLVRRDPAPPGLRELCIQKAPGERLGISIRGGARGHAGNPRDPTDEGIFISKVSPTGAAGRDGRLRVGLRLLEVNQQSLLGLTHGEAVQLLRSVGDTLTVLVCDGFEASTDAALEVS
The target in assay [18] is GST-Magi3 PDZ domain 1 (human) (UniProt Q5TCQ9). Description: Matrix/G assay ELISA, E6 peptide titrated on GST-PDZ.
The target in assay [19] is GST-VARTUL PDZ domain (number not stated) (human) (UniProt Q14160). The assay is described as above.

Chain of GST-Magi2 PDZ domain 3 (human) (Q86UL8 other isoform, or with tags, fused parts or gaps limits assumed, form in doubt): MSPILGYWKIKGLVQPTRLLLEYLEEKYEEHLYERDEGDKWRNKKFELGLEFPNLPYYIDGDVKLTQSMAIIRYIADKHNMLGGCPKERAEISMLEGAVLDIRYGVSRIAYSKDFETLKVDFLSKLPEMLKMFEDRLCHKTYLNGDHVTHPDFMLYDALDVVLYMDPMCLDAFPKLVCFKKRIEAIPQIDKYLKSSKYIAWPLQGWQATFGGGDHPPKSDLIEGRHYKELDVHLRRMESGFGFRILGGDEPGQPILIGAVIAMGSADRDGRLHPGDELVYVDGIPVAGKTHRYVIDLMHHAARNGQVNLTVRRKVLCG
Chain of GST-DLG-6 PDZ domain 1, clone #333.1 (human) (Q96JB8 other isoform, or with tags, fused parts or gaps): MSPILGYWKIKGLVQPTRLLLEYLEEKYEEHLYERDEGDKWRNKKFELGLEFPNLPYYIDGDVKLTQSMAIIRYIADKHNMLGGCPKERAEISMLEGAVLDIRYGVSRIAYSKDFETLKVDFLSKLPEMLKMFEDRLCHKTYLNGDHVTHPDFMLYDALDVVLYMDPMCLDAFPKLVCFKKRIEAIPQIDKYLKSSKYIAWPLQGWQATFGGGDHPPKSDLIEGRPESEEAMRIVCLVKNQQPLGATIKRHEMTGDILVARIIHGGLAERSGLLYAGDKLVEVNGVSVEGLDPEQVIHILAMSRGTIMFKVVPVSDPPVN
Chain of GST-MINT1 PDZ domains 1, 2 (human) (Q02410 other isoform, or with tags, fused parts or gaps limits assumed): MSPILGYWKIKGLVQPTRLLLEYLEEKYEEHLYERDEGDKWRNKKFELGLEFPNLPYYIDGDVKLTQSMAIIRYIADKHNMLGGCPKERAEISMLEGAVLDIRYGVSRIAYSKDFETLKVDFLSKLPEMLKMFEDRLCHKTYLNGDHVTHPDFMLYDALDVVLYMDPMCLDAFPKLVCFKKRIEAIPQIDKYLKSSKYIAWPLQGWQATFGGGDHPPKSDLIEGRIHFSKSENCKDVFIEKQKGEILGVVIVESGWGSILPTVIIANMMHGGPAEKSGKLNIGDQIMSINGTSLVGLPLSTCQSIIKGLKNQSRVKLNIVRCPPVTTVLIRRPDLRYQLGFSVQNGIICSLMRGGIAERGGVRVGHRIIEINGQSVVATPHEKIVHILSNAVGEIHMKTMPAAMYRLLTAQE

As to “GST-Magi2 PDZ domain 5 fusion protein (from UniProt Q86UL8 920-1010)”, the Ave OD in assay [1] was found to be 0.651 A450 nm. Also, the OD S/N in assay [2] is 3.93.
GST-INADL PDZ domain 3 fusion protein: the Ave OD in [1] is 0.485 A450 nm. For the same substance, in assay [2], the OD S/N was 1.86.
For the substance “HPV16 E6 C-terminal PDZ ligand peptide (20 mer, biotinylated) (from UniProt P03126 139-158)”, the Ave OD was 0.352 A450 nm in assay [3]; 0.416 A450 nm and 0.359 A450 nm in assay [4]; 0.42 A450 nm and 0.35 A450 nm in assay [5]; 0.425 A450 nm in assay [6]; 0.348 A450 nm in [7]; 0.36 A450 nm in assay [8]. In addition, the Ave OD is 0.43 A450 nm in assay [9]; 0.386 A450 nm in assay [10]; 0.349 A450 nm in assay [11]; 0.345 A450 nm in [12]; 0.432 A450 nm in [13]; 0.39 A450 nm in [14]. Further, in assay [15], the Ave OD turned out to be 0.365 A450 nm. For the same substance, the OD S/N (ratio to GST only well) in assay [3] was 1.8; in assay [4], 1.98 and 1.65; in assay [5], 1.96 and 1.82; in [6] it was 1.38; in [7] it was 1.8; in assay [8], 1.66. Further, the OD S/N (ratio to GST only well) in assay [9] came out at 1.65; in [10] it was 1.96; in assay [11], 2.04; in assay [12], 1.99; in [13] it was 1.77; in assay [14], 1.81. In [15], the OD S/N (ratio to GST only well) was 1.42. Also, the pEC50 (commonly the EC50 on a negative log10 scale, so that one unit is a factor of ten) was 6.51 in assay [16], 6.03 in assay [17], 6.51 in assay [18] and 6.03 in assay [19].
Turning to GST-NeDLG PDZ domain 1 fusion protein, the Ave OD in assay [1] came out at 0.516 A450 nm. The substance further registered an OD S/N in assay [2] of 1.98.
On to GST-PDZK1 PDZ domain 3 fusion protein, for which the Ave OD in [1] turned out to be 0.5 A450 nm. In assay [2], this substance showed an OD S/N of 1.92.
